# Experiments:
# MCP-1 = MCP-1 (UniProt P13500)
# MCP-2 = MCP-2 (UniProt P80075)
# Eotaxin = Eotaxin (UniProt P51671)
# IP-10 = IP-10 (UniProt P02778)
# RANTES(1-68) = RANTES(1-68) (UniProt P13501)
# Chain of RANTES(1-68) (P13501 24-91): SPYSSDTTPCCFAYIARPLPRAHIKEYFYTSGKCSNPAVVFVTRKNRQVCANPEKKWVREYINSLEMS
# Chain of IP-10 (P02778 whole entry, looked up): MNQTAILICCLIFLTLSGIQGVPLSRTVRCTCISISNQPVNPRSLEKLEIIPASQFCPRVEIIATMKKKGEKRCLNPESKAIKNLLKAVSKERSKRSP
# Chain of MCP-1 (P13500 whole entry, looked up): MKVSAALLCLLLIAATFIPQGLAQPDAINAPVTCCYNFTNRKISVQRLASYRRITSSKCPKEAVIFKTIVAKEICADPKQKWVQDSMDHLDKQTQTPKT
# Chain of Eotaxin (P51671 24-97): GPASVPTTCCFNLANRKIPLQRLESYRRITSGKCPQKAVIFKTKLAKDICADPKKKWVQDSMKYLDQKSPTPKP
# Chain of MCP-2 (P80075 24-99): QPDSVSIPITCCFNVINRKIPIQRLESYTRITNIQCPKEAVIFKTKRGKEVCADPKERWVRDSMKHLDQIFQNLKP
substance,measurement,setting,value
enzymatically active (E+) recombinant soluble human CD26 (sCD26),CD26 cleavage (ES-MS after overnight digestion with sCD26),MCP-1,No
same,CD26 cleavage (ES-MS after overnight digestion with sCD26),MCP-2,Yes
same,CD26 cleavage (ES-MS after overnight digestion with sCD26),Eotaxin,Yes
same,CD26 cleavage (ES-MS after overnight digestion with sCD26),IP-10,Yes
same,hydrolysis of rhRANTES by sCD26 (ES-MS of cleavage products),RANTES(1-68),100 nM rhRANTES underwent partial to complete hydrolysis when incubated overnight at 37 °C with increasing amounts (25 to 250 (U) of sCD26
